B1: Mothers against decapentaplegic homolog 4 (Homo sapiens), Q13485 (parent)
chain: MDNMSITNTPTSNDACLSIVHSLMCHRQGGESETFAKRAIESLVKKLKEKKDELDSLITAITTNGAHPSKCVTIQRTLDGRLQVAGRKGFPHVIYARLWRWPDLHKNELKHVKYCQYAFDLKCDSVCVNPYHYERVVSPGIDLSGLTLQSNAPSSMMVKDEYVHDFEGQPSLSTEGHSIQTIQHPPSNRASTETYSTPALLAPSESNATSTANFPNIPVASTSQPASILGGSHSEGLLQIASGPQPGQQQNGFTGQPATYHHNSTTTWTGSRTAPYTPNLPHHQNGHLQHHPPMPPHPGHYWPVHNELAFQPPISNHPAPEYWCSIAYFEMDVQVGETFKVPSSCPIVTVDGYVDPSGGDRFCLGQLSNVHRTEAIERARLHIGKGVQLECKGEGDVWVRCLSDHAVFVQSYYLDREAGRAPGDAVHKIYPSAYIKVFDLRQCHRQMQQQAATAQAAAAAQAAAVAGNIPGPGSVGGIAPAISLSAAAGIGVDDLRRLCILRMSFVKGWGPDYPRQSIKETPCWIEIHLHRALQLLDEVLHTMPIADPQPLD
partner: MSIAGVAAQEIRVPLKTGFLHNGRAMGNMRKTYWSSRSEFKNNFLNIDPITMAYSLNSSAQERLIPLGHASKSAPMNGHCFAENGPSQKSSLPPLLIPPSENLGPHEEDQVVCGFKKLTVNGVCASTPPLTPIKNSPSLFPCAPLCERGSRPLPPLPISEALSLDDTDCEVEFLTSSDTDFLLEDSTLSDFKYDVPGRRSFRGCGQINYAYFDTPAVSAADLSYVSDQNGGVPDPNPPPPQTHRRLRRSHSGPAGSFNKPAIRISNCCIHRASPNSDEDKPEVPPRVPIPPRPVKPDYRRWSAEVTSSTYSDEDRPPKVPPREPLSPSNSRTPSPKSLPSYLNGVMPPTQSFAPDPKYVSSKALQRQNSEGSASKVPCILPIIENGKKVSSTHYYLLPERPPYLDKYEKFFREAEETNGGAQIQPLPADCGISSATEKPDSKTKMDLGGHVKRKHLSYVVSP
B2: Mothers against decapentaplegic homolog 4 (Homo sapiens), Q13485 (parent)
chain: B1 chain
partner: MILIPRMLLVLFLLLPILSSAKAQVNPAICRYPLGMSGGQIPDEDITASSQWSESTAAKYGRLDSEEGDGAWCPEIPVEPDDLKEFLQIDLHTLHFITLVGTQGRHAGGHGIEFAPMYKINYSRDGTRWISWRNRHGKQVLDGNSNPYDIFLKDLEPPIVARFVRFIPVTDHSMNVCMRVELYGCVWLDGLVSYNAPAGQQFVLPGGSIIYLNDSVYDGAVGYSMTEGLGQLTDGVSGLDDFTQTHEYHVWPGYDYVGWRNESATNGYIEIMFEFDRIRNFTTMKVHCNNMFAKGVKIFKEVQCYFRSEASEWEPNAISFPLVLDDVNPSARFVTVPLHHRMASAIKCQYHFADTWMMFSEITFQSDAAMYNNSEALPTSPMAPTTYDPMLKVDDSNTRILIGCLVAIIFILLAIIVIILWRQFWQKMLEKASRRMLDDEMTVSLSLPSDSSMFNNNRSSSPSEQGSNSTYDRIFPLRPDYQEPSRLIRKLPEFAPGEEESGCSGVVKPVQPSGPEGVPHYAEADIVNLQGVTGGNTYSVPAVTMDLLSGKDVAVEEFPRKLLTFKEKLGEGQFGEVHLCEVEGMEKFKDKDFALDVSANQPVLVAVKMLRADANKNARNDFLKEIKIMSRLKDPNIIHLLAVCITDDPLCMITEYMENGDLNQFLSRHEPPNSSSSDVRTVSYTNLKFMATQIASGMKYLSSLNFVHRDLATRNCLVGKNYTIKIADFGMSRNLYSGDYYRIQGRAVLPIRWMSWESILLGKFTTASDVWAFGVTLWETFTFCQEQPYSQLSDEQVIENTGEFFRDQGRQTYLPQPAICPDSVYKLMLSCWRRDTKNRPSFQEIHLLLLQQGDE
B3: Mothers against decapentaplegic homolog 4 (Homo sapiens), Q13485 (parent)
chain: B1 chain
partner: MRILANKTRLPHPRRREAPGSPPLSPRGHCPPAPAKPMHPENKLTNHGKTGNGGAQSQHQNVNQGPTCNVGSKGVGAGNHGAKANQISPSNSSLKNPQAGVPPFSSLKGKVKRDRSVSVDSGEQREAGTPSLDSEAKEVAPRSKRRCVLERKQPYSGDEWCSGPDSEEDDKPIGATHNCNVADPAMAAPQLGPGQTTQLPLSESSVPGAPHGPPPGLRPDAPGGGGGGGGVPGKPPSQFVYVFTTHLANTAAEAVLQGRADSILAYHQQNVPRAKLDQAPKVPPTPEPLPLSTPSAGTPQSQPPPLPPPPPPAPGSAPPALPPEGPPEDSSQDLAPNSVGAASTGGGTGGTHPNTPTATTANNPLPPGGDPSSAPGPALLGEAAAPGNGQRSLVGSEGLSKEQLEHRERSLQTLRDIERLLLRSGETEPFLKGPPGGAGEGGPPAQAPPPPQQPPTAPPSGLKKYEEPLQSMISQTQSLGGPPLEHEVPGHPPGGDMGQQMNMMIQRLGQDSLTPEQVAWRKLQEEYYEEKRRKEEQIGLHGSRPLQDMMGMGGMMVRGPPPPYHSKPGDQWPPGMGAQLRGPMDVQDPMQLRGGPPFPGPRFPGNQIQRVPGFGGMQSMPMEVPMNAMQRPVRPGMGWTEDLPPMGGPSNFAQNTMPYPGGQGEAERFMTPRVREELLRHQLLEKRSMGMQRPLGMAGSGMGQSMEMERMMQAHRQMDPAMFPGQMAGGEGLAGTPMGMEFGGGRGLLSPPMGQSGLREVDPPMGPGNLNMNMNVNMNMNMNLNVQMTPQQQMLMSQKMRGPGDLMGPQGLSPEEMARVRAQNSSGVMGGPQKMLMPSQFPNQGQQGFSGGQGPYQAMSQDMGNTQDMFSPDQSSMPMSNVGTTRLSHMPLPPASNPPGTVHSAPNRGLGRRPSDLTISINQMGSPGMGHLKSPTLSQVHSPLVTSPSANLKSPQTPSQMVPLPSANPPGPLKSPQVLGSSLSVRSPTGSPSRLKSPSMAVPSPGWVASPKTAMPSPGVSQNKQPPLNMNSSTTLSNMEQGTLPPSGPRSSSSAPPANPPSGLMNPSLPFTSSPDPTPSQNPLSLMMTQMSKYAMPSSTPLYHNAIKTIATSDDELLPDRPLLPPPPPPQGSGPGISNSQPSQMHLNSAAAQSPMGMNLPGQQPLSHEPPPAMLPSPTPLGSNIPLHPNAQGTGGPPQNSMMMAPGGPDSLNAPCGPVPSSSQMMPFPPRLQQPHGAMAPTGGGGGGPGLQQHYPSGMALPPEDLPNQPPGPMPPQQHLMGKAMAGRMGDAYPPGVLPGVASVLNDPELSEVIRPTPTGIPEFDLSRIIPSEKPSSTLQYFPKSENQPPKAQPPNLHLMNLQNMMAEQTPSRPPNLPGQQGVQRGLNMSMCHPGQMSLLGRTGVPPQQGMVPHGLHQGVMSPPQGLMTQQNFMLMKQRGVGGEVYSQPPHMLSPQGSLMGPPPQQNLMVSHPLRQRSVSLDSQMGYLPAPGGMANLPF
B4: Mothers against decapentaplegic homolog 4 (Homo sapiens), Q13485 (parent)
chain: B1 chain
partner: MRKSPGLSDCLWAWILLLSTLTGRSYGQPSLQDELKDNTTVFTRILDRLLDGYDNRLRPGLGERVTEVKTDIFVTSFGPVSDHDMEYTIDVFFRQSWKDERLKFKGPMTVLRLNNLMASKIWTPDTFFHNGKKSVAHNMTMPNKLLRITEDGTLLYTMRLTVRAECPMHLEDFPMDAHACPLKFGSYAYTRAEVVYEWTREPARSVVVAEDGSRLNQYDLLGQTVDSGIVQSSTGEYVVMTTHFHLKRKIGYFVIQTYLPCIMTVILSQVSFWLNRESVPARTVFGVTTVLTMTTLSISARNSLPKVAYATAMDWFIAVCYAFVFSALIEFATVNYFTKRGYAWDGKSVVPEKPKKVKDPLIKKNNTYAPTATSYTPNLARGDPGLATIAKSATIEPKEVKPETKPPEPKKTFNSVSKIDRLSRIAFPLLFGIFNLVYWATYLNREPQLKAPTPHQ

Variants of: B1
Conditions: with errfi_human ERRFI1, Q9UJM3

Row | effect of a mutation on the interaction | Variant
1 | with no effect | G386D

Variants of: B2
Conditions: with ddr2_human DDR2, Q16832

Row | effect of a mutation on the interaction | Variant
2 | with no effect | R361C

Variants of: B2
Conditions: with ddr2_human DDR2, Q16832
Remark: another data set of the same source

Row | effect of a mutation on the interaction | Variant
3 | with no effect | R361H

Variants of: B2
Conditions: with ddr2_human DDR2, Q16832
Remark: another data set of the same source

Row | effect of a mutation on the interaction | Variant
4 | with no effect | D351H

Variants of: B2
Conditions: with ddr2_human DDR2, Q16832
Remark: another data set of the same source

Row | effect of a mutation on the interaction | Variant
5 | with no effect | G386D

Variants of: B3
Conditions: with bcl9l_human BCL9L

Row | effect of a mutation on the interaction | Variant
6 | with no effect | D351H

Variants of: B3
Conditions: with bcl9l_human BCL9L
Remark: another data set of the same source

Row | effect of a mutation on the interaction | Variant
7 | with no effect | R361C

Variants of: B3
Conditions: with bcl9l_human BCL9L
Remark: another data set of the same source

Row | effect of a mutation on the interaction | Variant
8 | with no effect | R361H

Variants of: B3
Conditions: with bcl9l_human BCL9L
Remark: another data set of the same source

Row | effect of a mutation on the interaction | Variant
9 | with no effect | G386D

Variants of: B4
Conditions: with gbra1_human GABRA1, P14867

Row | effect of a mutation on the interaction | Variant
10 | with no effect | G386D

Variants of: B4
Conditions: with gbra1_human GABRA1, P14867
Remark: another data set of the same source

Row | effect of a mutation on the interaction | Variant
11 | with no effect | D351H

Variants of: B4
Conditions: with gbra1_human GABRA1, P14867
Remark: another data set of the same source

Row | effect of a mutation on the interaction | Variant
12 | with no effect | R361C

From IntAct's records for PubMed 35512704
